Publication PMC7368010, “Global translation during early development depends on the essential transcription factor PRDM10”

T1: GST-PRDM10 441-880 (central zinc finger array) (UniProt Q3UTQ7 441-880)
T1 sequence: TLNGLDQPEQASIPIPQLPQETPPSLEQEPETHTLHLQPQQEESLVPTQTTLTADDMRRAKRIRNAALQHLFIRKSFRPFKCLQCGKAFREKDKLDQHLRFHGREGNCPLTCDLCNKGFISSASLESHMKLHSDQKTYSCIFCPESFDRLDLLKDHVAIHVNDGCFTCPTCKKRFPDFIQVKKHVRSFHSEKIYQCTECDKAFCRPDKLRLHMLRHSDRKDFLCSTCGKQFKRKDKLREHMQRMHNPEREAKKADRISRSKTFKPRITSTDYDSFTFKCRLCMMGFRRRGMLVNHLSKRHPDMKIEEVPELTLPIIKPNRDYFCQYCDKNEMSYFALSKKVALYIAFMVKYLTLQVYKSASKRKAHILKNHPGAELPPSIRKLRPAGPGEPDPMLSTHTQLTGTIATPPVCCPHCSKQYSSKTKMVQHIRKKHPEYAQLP

B1: WT unlabeled competitor (dsDNA)
DNA 1: CTGGCACAGTGGTCGCGCCCGGCCCGCC
DNA 2: GGCGGGCCGGGCGCGACCACTGTGCCAG
B2: WT probe (dsDNA)
DNA 1: CTGGCACAGTGGTCGCGCCCGGCCCGCC
DNA 2: GGCGGGCCGGGCGCGACCACTGTGCCAG

Tests used:
[1] = target: T1, GST-PRDM10 441-880 (central zinc finger …); assay: competition; EMSA, 20- to 320-fold excess over 10 nM labeled WT probe; 0.4 uM ZnCl2; EMSA: 6 mM HEPES-KOH pH 7.9, 6% glycerol, 100 ug/mL BSA, 0.4 uM ZnCl2, 20 ug/mL poly(dI-dC), room temperature 20 min; 6% native PAGE in 0.25x TBE; conditions: protein: recombinant; tags: GST; blunt
[2] = target: T1, GST-PRDM10 441-880 (central zinc finger …); assay: EMSA; 125-1000 nM protein, 10 nM probe; 0.4 uM ZnCl2; EMSA: 6 mM HEPES-KOH pH 7.9, 6% glycerol, 100 ug/mL BSA, 0.4 uM ZnCl2, 20 ug/mL poly(dI-dC), room temperature 20 min; 6% native PAGE in 0.25x TBE; conditions: protein: recombinant; tags: GST; label: 5'-biotin; blunt

Row | Binder | binding result [1] | binding result [2]
1 | B1 | binds | –
2 | B2 | – | binds
